Measured values published in PMC7578760 (iScience, 2020).

Biological target: the molecule itself
Assay: crystal structure

B1: 14-3-3θ protein (natural protein)
chain: EKTELIQKAKLAEQAERYDDMATCMKAVTEQGAELSNEERNLLSVAYKNVVGGRRSAWRVISSIEQKTDTSDKKLQLIKDYREKVESELRSICTTVLELLDKYLIANATNPESKVFYLKMKGDYFRYLAEVACGDDRKQTIDNSQGAYQEAFDISKKEMQPTHPIRLGLALNFSVFYYEILNNPELACTLAKTAFDEAIAELDTLNEDSYKDSTLIMQLLRDNLTLWTSDSAG
stoichiometry N: 2
